The values that follow come from patent US20230121197A1, “ANTIBODIES SPECIFICALLY BINDING THE CARBOXYMETHYLATED CATALYTIC SUBUNIT OF PROTEIN PHOSPHATASE 2A” (Medizinische Universität Wien, priority 2020, published 2023).

Assay [1] concerns the target T1, C-terminal PP2Ac peptides L309, Y307F, pY307, meL309 (Homo sapiens, UniProt P67775).
T1 construct: coated with C-terminal PP2Ac peptides either free or linked to BSA; BSA (carrier)
Description: ELISA with CGEPHVTRRTPDYFL peptides free or linked to BSA (scFv and recombinant 7C10-C5). In kind it is binding. To be noted: peptides free or linked to BSA. As for the experimental part:
Nunc Medisorp 96-well ELISA flat-bottom plates were coated with C-terminal PP2Ac peptides either free or linked to BSA. Specifically, the peptides were: unmodified L309 (CGEPHVTRRTPDYFL) (SEQ ID NO:49), Y307F (CGEPHVTRRTPDFFL) (SEQ ID NO:50), pY307 (CGEPHVTRRTPDpYFL) (SEQ ID NO:51) or carboxymethylated meL309 (CGEPHVTRRTPDYFL-CH3) (SEQ ID NO:49), on the ELISA plate at 8 μg/ml in TBS (free) or 1 μg/ml in TBS (linked to BSA) at 4° C. overnight. After washing twice with TBS, the wells were incubated with 2% BSA in TBS for 1 h at RT. After washing once with TBS, the wells were incubated with single clone hybridoma cell culture supernatant, clone 7C10-C5 1:50 (7C10 X63), recombinant single chain variable fragment of antibody 7C10-C5, undiluted (7C10 scFvs), or recombinant bivalent single chain variable fragment of antibody 7C10-C5, undiluted (7C10 bi-scFvs). After washing 3× with TBS, wells incubated with recombinant antibodies were incubated with monoclonal antibody 16B12, 1:10000 (recognizing the hemagglutinin tag on the recombinant antibody) in 1% BSA TBS 1 h at room temperature. After washing 3× in TBS, incubation with anti-mouse-HRP coupled secondary antibody for 1 h at RT was performed. Bound antibodies were detected by colorimetric reaction with 3,3′,5,5′-Tetramethylbenzidine as substrate, and absorbance was measured at 450 nm. Values were normalized to meL309 which was arbitrarily set to 1. Average and standard deviation of N=3 experiments are shown.
Nunc Medisorp 96-well ELISA flat-bottom plates were coated with peptides either free or linked to BSA, L309 (CGEPHVTRRTPDYFL) (SEQ ID NO:49) or meL309 (CGEPHVTRRTPDYFL-CH3) (SEQ ID NO:49), on the ELISA plate at 0.5 μg/ml in TBS (free) or […] in TBS (linked to BSA) at 4° C. over night. After washing twice with TBS, the wells were incubated with 2% BSA in TBS for 1 h at RT. After washing once with TBS, the wells were incubated with single clone hybridoma cell culture supernatant, clone 7C10-C5 1:50 (7C10 X63), or recombinant antibody 7C10-C5 undiluted (rec 7C10). After washing 3× with TBS, incubation with anti-mouse-HRP coupled secondary antibody for 1 h at RT was performed. Bound antibodies were detected by colorimetric reaction with 3,3′,5,5′-Tetramethylbenzidine as substrate, and absorbance was measured at 450 nm. Values were normalized to meL309 incubated with 7C10 X63, which was arbitrarily set to 1. Average and standard deviation of N=3 experiments are shown (FIG. 30).

Another assay concerns the target T2, PP2Ac (Homo sapiens, UniProt P67775).
T2 construct: the carboxy-terminal methyl group was chemically removed from cellular PP2Ac; endogenous in cells; host or cells: HAP1 wild type, HAP1 Lcmt-1-KO, HEK293Trex / HEK293T
Description: Western blot of human cell lysates (HAP1, HEK293; NaOH treatment, Lcmt-1-KO). The conditions noted are these: HAP1, HEK293. In kind it is binding. Here is the method:
NIH3T3 mouse fibroblasts and human embryonic kidney cells (HEK293Trex) were grown in DMEM+10% FCS+2 mM L-glutamine (Sigma, G2150)+100 units/ml Penicillin/0.1 mg/ml Streptomycin at 37° C. in a 7.5% CO2 atmosphere. HAP1 wild type and HAP1 Lcmt-1-KO cells (Leucine carboxyl methyltransferase 1 deleted by CRISPR/Cas9; Horizon Discovery, #C631 and #HZGHC004373c001) were grown in Iscove's Modified Dulbecco's Medium (IMDM, Thermo Fischer Scientific, Life Technologies #12440053) supplemented with 10% (v/v) Fetal Calf Serum (FCS) (Sigma #F7524, lot 104M3333), GlutaMAX™ (Thermo Fischer Scientific, Life Technologies #35050-38, lot 1895829), and Penicillin-Streptomycin solution (Sigma, #P4333, lot 125M4781V) in a 5% CO2 atmosphere. Of note, HAP1 is a near-haploid human cell line that was derived from the chronic myelogenous leukemia (CML) cell line KBM-7 (Carette (2011), Nature 477(7364):340-3). For cell lysis, exponentially growing cells were washed once with ice-cold PBS, once with ice-cold IP-Wash buffer (20 mmol/l Tris pH 8.0, 135 mmol/l NaCl, 10% glycerol) and lysed on the petri-dish in ice-cold IP-Lyse buffer (18 mmol/l Tris pH 8.0, 122 mmol/l NaCl, 9% glycerol, 1% w/v NP-40) for 20 min at 4° C. rocking. Lysed cells were transferred to Eppendorf 1.5 ml tubes and centrifuged for 15 min at 14,000 rpm at 4° C. in a Beckman & Coulter Microfuge 18 centrifuge. The protein concentration was determined with the Protein Assay Dye Reagent (Biorad, 500-0006) and measurement of absorbance at 595 nm in a Hitachi U-2000 spectrophotometer. […]
To test these antibodies in the western blot analysis with methylated and non-methylated full-length PP2Ac the methyl group was chemically removed from cellular PP2Ac by treating lysates of the human cell line, HAP1, with NaOH, as described in Example 2. […] In agreement with the results of the NaOH experiments, […] of PP2Ac were detected in HAP1 cells that lack the PP2A methyltransferase LCMT-1 indicating the preference of these antibodies for non-methylated PP2Ac (FIG. 22). […]

In assay [2] the target is T3, C-terminal PP2Ac peptide Y307F, CGEPHVTRRTPDFFL (15-mer).
T3 construct: Non-carboxymethylated; Phe in place of Tyr307; Crosslinked to BSA in the Western blot; free or linked to BSA in the ELISA
T3 peptide: CGEPHVTRRTPDFFL
Description: Western blot of 100 ng BSA crosslinked with peptide, detected through 16B12. As for the experimental part:
100 ng of BSA crosslinked with peptides (L309: […] (SEQ ID NO:49), Y307F: […] (SEQ ID NO.50), pY307: […]pYFL (SEQ ID NO:51) or meL309: […]-CH₃) (SEQ ID NO:49) was separated by 10% SDS-PAGE and transferred to nitrocellulose membrane (0.2 μm, GE Healthcare). […] The membranes were blocked in 3% non-fatty dry milk (NFDM) in TBS-Tween for 1 h at RT and incubated with single clone hybridoma cell culture supernatant, clone 7C10-C5 diluted 1:100 in 0.5% NFDM in TBS-T (7C10 X63), recombinant single chain variable fragment of antibody 7C10-C5, undiluted (7C10 scFvs), recombinant bivalent single chain variable fragment 7C10-C5, undiluted (7C10 bi-scFvs) or single clone hybridoma cell culture supernatant, clone 1D7 (binding to non-carboxymethylated PP2Ac) 1:100 in 0.5% NFDM in TBS-T o/n at 4° C. After washing 3×5 min in TBS-T, blots incubated with recombinant antibodies were incubated with mouse anti-HA monoclonal antibody 16B12 (recognizing the hemagglutinin (HA) tag on the recombinant antibody), 1:10000 in 0.5% NFDM in TBS-T 2 h at room temperature. After washing 3×5 min in TBS-T, incubation with anti-mouse-HRP coupled secondary antibody for 1 h at RT and 3×10 min washes in TBS-T was performed. ECL was performed with GE Healthcare ECL reagents (RPN2106) mixed 1:3 with Clarity™ Western ECL Substrate, 500 ml #1705061 (Biorad). Signals were detected by exposure of X-ray films. […]
In general terms: Immunoblotting shows a protein as a band on a membrane.

T2 sequence (P67775 whole entry): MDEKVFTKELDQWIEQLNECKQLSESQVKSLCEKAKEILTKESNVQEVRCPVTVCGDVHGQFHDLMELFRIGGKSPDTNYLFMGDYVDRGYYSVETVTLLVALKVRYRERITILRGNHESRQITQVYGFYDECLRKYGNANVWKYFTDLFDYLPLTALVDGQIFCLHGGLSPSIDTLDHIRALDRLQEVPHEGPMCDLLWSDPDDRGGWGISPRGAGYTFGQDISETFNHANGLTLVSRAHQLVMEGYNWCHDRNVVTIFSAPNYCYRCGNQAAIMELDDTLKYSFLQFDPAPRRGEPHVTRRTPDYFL

B1: recombinant 7C10-C5: recombinant 7C10-C5 antibody with mIgCK light chain and mIgG2a heavy chain (SEQ ID NO:123, 125) (protein)
light: MDMRVPAQLLGLLLLWLSGARCDVLMTQTPLSLPVSLGDQASISCRSSQSIVHSNGNTYLEWYLQKPGQSPKLLIYKVSNRFSGVPDRFSGSGSGTDFTLKINRVEAEDLGVYYCFQGSHVPWTFGGGTKLEIKADAAPTVSIFPPSSEQLTSGGASVVCFLNNFYPKDINVKWKIDGSERQNGVLNSWTDQDSKDSTYSMSSTLTLTKDEYERHNSYTCEATHKTSTSPIVKSFNRNEC
heavy: MYRMQLLSCIALSLALVTNSDVQLQESGPGLVKPSQSLSLTCSVTGYSITSGYYWNWIRQFPGNKLEWMGYISYDGSNNYNPSLKNRISITRDTSKNQFFLKLNSVTTEDTATYYCAGRFAYWGQGTLVTVSAAKTTAPSVYPLAPVCGDTTGSSVTLGCLVKGYFPEPVTLTWNSGSLSSGVHTFPAVLQSDLYTLSSSVTVTSSTWPSQSITCNVAHPASSTKVDKKIEPRGPTIKPCPPCKCPAPNLLGGPSVFIFPPKIKDVLMISLSPIVTCVVVDVSEDDPDVQISWFVNNVEVHTAQTQTHREDYNSTLRVVSALPIQHQDWMSGKEFKCKVNNKDLPAPIERTISKPKGSVRAPQVYVLPPPEEEMTKKQVTLTCMVTDFMPEDIYVEWTNNGKTELNYKNTEPVLDSDGSYFMYSKLRVEKKNWVERNSYSCSVVHEGLHNHHTTKSFSRTPGK
modifications: Amino acid sequence of the recombinant 7C10-C5 light chain; Amino acid sequence of the recombinant 7C10-C5 heavy chain
Take B1: in assay [1], the “recognition of meL309 versus non-carboxymethylated peptides” value is “Specific for the α-Carboxymethylated PP2Ac”. The “detection of PP2Ac in untreated versus NaOH treated cell lysates” value with PP2Ac was “only detected methylated PP2Ac in the untreated cell lysates but not in the NaOH treated lysates”.

B2: recombinant monovalent single chain variable fragment (scFv) of antibody 7C10-C5 (scFv)
scFv: DVLMTQTPLSLPVSLGDQASISCRSSQSIVHSNGNTYLEWYLQKPGQSPKLLIYKVSNRFSGVPDRFSGSGSGTDFTLKINRVEAEDLGVYYCFQGSHVPWTFGGGTKLEIKSSGGGGSGGGGGGSSRSSLDVQLQESGPGLVKPSQSLSLTCSVTGYSITSGYYWNWIRQFPGNKLEWMGYISYDGSNNYNPSLKNRISITRDTSKNQFFLKLNSVTTEDTATYYCAGRFAYWGQGTLVTVSAAKTTPPSVTSGQAGQHHHHHHGAYPYDVPDYAS
notes: VL - 19 aa linker - VH - 8 aa of CH1 - 6xHis - HA tag; secreted into HEK293T supernatant, used undiluted; also called 7C10 scFvs; monovalent 7C10-C5 scFv
For B2, the binding result in assay [2] is on record as “no binding (tested: undiluted supernatant)”.

B3: recombinant bivalent single chain variable fragment (scFv) of antibody 7C10-C5 (scFv)
scFv: DVLMTQTPLSLPVSLGDQASISCRSSQSIVHSNGNTYLEWYLQKPGQSPKLLIYKVSNRFSGVPDRFSGSGSGTDFTLKINRVEAEDLGVYYCFQGSHVPWTFGGGTKLEIKSSGGGGSGGGGGGSSRSSLDVQLQESGPGLVKPSQSLSLTCSVTGYSITSGYYWNWIRQFPGNKLEWMGYISYDGSNNYNPSLKNRISITRDTSKNQFFLKLNSVTTEDTATYYCAGRFAYWGQGTLVTVSAAKTTPPSVGSGSGSGSGSGSGSGSGSGSGSGSGSGSGSDVLMTQTPLSLPVSLGDQASISCRSSQSIVHSNGNTYLEWYLQKPGQSPKLLIYKVSNRFSGVPDRFSGSGSGTDFTLKINRVEAEDLGVYYCFQGSHVPWTFGGGTKLEIKSSGGGGSGGGGGGSSRSSLDVQLQESGPGLVKPSQSLSLTCSVTGYSITSGYYWNWIRQFPGNKLEWMGYISYDGSNNYNPSLKNRISITRDTSKNQFFLKLNSVTTEDTATYYCAGRFAYWGQGTLVTVSAAKTTPPSVTSGQAGQHHHHHHGAYPYDVPDYAS
notes: Two VL-linker-VH units joined by a (Gly-Ser)x15 linker, C-terminal 6xHis and HA tag; HEK293T supernatant, undiluted; Signal peptide (residues 1-22, before the first VL) left out by counting; also called 7C10 bi-scFvs; bivalent 7C10-C5 scFv
Take B3: the binding result in assay [2] is listed as “no binding (tested: undiluted supernatant)”.
